Test results from PMC5520057, “Modulation of nongenomic activation of PI3K signalling by tetramerization of N-terminally-cleaved RXRα” (Nature Communications, 2017).
Where “and” joins values, the source holds several entries; their conditions need not be identical. Identical values can stand only once.

B1: His-RXRα-LBD [human] / itself (parent)
chain: TSSANEDMPVERILEAELAVEPKTETYVEANMGLNPSSPNDPVTNICQAADKQLFTLVEWAKRIPHFSELPLDDQVILLRAGWNELLIASFSHRSIAVKDGILLATGLHVHRNSAHSAGVGAIFDRVLTELVSKMRDMQMDKTELGCLRAIVLFNPDSKGLSNPAEVEALREKVYASLEAYCKHKYPEQPGRFAKLLLRLPALRSIGLKCLEHLFFFKLIGDTPIDTFLMEMLEAPHQMT

Variants of: B1
Assay: non-denaturing polyacrylamide gel electrophoresis, densitometry
Details: with itself

Variant | screen value (DMSO (no K-80003, no 9-cis-RA)) | screen value (K-80003) | screen value (K-80003 + 9-cis-RA)
TSSANEDMPVERILEAELAVEPKTETYVEANMGLNPSSPNDPVTNICQAADKQLFTLVEWAKRIPHFSELPLDDQVILLRAGWNELLIASFSHRSIAVKDGILLATGLHVHRNSAHSAGVGAIFDRVLTELVSKMRDMQMDKTELGCLRAIVLFNPDSKGLSNPAEVEALREKVYASLEAYCKHKYPEQPGRFAKLLLRLPALRSIGLKCLEHLFFAKLIGDTPIDTFLMEMLEAPHQMT [chain 1 F217A] | 47% and 53% | 55% and 45% | –
TSSANEDMPVERILEAELAVEPKTETYVEANMGLNPSSPNDPVTNICQAADKELFTLVEWAKRIPHFSELPLDDQVILLRAGWNELLIASFSHRSIAVKDGILLATGLHVHRNSAHSAGVGAIFDRVLTELVSKMRDMQMDKTELGCLRAIVLFNPDSKGLSNPAEVEALREKVYASLEAYCKHKYPEQPGRFAKLLLRLPALRSIGLKCLEHLFFFKLIGDTPIDTFLMEMLEAPHQMT [chain 1 Q53E] | 53% and 47% | 58% and 42% | –
TSSANEDMPVERILEAELAVEPKTETYVEANMGLNPSSPNDPVTNICQAADKQLFTLVEWAKRIPHFSELPLDDQVILLRAGWNELLIASFSHRSIAVKDGILLATGLHVHRNSAHSAGVGAIFDRVLTELVSKMRDMQMDKTELGCLRAIVLFNPDSKGLSNPAEVEALREKVYASLEAYCKHKYPEQPGRFAKLLLRLPALRSIGLKCDEHLFFFKLIGDTPIDTFLMEMLEAPHQMT [chain 1 L211D] | 54% and 46% | 43% and 57% | 59% and 41%
